{"source": "patent US12371675B2", "about": "“Process and microorganism for synthesis of adipic acid from carboxylic acids” (THE GOVERNING COUNCIL OF THE UNIVERSITY OF TORONTO, priority 2015, dated 2025)"}
{"test": "Whole-cell biotransformation of muconic acid by E. coli expressing EREDs", "type": "cell-based", "conditions": "0.7 mM, 24-hr incubation", "experimental": "After a 24-hr incubation, no muconic acid or 2-hexenedioic acid were detected in the culture, and a 99% yield of adipic acid was obtained (FIGS. 8a, 8b, and 8c). […] The 3-hexenedioic acid-like compound appears to be an inefficient substrate for these EREDS. This is similar to the mutated 2,4-dienoyl-CoA reductases from E. coli, which catalyze hydrogenation of 2,4-dienoyl CoA into 3-enoyl CoA (Tu, X., Hubbard, P. A., Kim, J. J. P. & Schulz, H. Two distinct proton donors at the active site of Escherichia coli 2,4-dienoyl-CoA reductase are responsible for the formation of different products. Biochemistry 47, 1167-1175 (2008).).", "units": {"yield of adipic acid from trans,trans-muconic acid": "%"}}
{"molecule": "EREDCK: 2-enoate reductase (ERED) from Clostridium kluyveri DSM 555 (protein) MKNKSLFEPIKIGNMEVKNKIAMAPMGAFGLVDNECCFNQRAVDYYVERAKGGTGLIITSVVKVENELDKVLTGVLPITSINPAKFIMTSSEMTERVHAYGSKIFLQLSMGFGRSGAPGGLLTSQPVSASAVPNYWDPTVTCRELTTSEVEWIVEKFAEGAKIAHKAGFDGVEIHAVHEGYLLDQFTLSIFNRRTDKYGGDLRGRLQLPIEIVEAIKTEVGSNFPVGLRYSVKSCIKDWGQGGLAEEDYVEKGRDLEEGLEAAKILEAAGYDAFNADLGTYDAWYWAHPPLYQKDGLYLPYTKELKKVVKIPVMVAGKMGMPDVAEGALEDEAADMVTLGRPLLCDAYWPKKVFTGQIDRIRPCIGCHTGCMGRGFEGRPLSCTVNPAAGRERYYEVKPAAAPKKVMIVGGGVAGMEAARITAMRGHKVSMYEGTKELGGQVIPASVPDFKIDDRRLLDWYRNEMKELKVKLVLDTNVTEEVVEKEKPDVVIIATGAKEIKLNLPGIEKDKVATVIEVLKGSKQVGENVLMVGGGLAGCETALYLAKQGKKVTIIEARDTILNAGKPVPHMNKIMLIDLLKNSGVNIITETSLLEVTDRGAILIDNKFKKQNIDADTVVIAVGFKADRELYNKLRDKVADLYLVGDANESANIMNAIWSANEIALNC", "yield of adipic acid from trans,trans-muconic acid": 99}
{"test": "AT activity coupled with alanine and glutamate dehydrogenases", "type": "biochemical", "conditions": "10 mM adipaldehyde, alanine and glutamate amino-donors; ND = no activity was detected", "units": {"Adipaldehyde 10 mM U/mg": "U/mg"}}
{"molecule": "SM2011_c01534: aminotransferase (AT) from Sinorhizobium meliloti (protein) MSNRLNTTPNDLSAFWMPFTANRQFKKEPRLFVGAKDMYYTTHDGRTVLDGTAGLWCVNAGHCRPKITEAIREQAGELDYAPAFQLGHPKAFELANRLVDIAPEGMNHVLYTNSGSESVDTALKVALAYHRAKGNGSRFRLIGRERGYHGVNFGGISVGGIVANRKMFGTLLTGVDHLPHTHLPAKNAFSRGEPEHGADLAAELERIVTLHDASTVAAVIVEPVAGSTGVLIPPKGYLQKLREICTKHGILLIFDEVITGYGRLGTPFAAQYFDVKPDIITTAKGLTNGVIPMGAVFVTSEIHDAFMTGPEHLIEFFHGYTYSGNPIASAAALGTLDTYREEGLLTRAAELAPYWEEALHSLKDCPHVIDIRNIGLIGAVELEPIAGEPTKRAFSAFLKAYEKGLLIRTTGDIIALSPPLIIEKRQIDELFDKLRDVLKNNI", "Adipaldehyde 10 mM U/mg": "0.021 ± 0.003"}
{"molecule": "Mll7127: aminotransferase (AT) from Rhizobium loti (protein) MLNQSNELNAWDRDHFFHPSTHMGTHARGESPTRIMAGGEGVTVWDNNGRKSIDAFAGLYCVNVGYGRQKIADAIATQAKNLAYYHAYVGHGTEASITLAKMIIDRAPKGMSRVYFGLSGSDANETNIKLIWYYNNVLGRPEKKKIISRWRGYHGSGVMTGSLTGLDLFHNAFDLPRAPVLHTEAPYYFRRTDRSMSEEQFSQHCADKLEEMILAEGPETIAAFIGEPILGTGGIVPPPAGYWEKIQAVLKKYDVLLVADEVVTGFGRLGTMFGSDHYGIKPDLITIAKGLTSAYAPLSGVIVADRVWQVLVQGSDKLGSLGHGWTYSAHPICVAAGVANLELIDEMDLVTNAGETGAYFRAELAKAVGGHKNVGEVRGDGMLAAVEFVADKDDRVFFDASQKIGPQVATALAASGVIGRAMPQGDILGFAPPLCLTREQADIVVSKTADAVKSVFANL", "Adipaldehyde 10 mM U/mg": "0.063 ± 0.001"}
{"molecule": "Spo3471: aminotransferase (AT) from Ruegeria pomeroyi (protein) MATITNHMPTAELQALDAAHHLHPFSANNALGEEGTRVITRARGVWLNDSEGEEILDAMAGLWCVNIGYGRDELAEVAARQMRELPYYNTFFKTTHVPAIALAQKLAELAPGDLNHVFFAGGGSEANDTNIRMVRTYWQNKGQPEKTVIISRKNAYHGSTVASSALGGMAGMHAQSGLIPDVHHINQPNWWAEGGDMDPEEFGLARARELEEAILELGENRVAAFIAEPVQGAGGVIVAPDSYWPEIQRICDKYDILLIADEVICGFGRTGNWFGTQTMGIRPHIMTIAKGLSSGYAPIGGSIVCDEVAHVIGKDEFNHGYTYSGHPVAAAVALENLRILEEENILDHVRNVAAPYLKEKWEALTDHPLVGEAKIVGMMASIALTPNKASRAKFASEPGTIGYICRERCFANNLIMRHVGDRMIISPPLVITPAEIDEMFVRIRKSLDEAQAEIEKQGLMKSAA", "Adipaldehyde 10 mM U/mg": "0.021 ± 0.001"}
{"molecule": "SM2011_c04388: aminotransferase (AT) from Sinorhizobium meliloti (protein) MNAHNKPNAPVLDSYWMPFTANRQFKAAPRLLAAAEGMHYTSVDGRTVLDGTAGLWCVNAGHGRRQIAAAVERQLSTMDFAPSFQMGHPIAFDFAERLAEIAPGPAGAKLDRVFFTGSGSESVDTALKMALAYQRSIGQGTRTRLIGRERGYHGVGFGGISVGGIVNNRRVFPQLPGSDHLRHTHDPAKNAFVKGQPEHGAELADDLERLVALHGAETIAACIVEPVAGSTGVLIPPKGYLERLRAICDKHGILLIFDEVITGFGRLGAAFATDYFGVTPDIVTTAKGLTNGAIPMGAVFASRKVHDALMHGPEGQIELFHGYTYSGHPAACAAGIATLDIYRDEGLMTRAAEIEGDWHEAMHSMKGLPHVIDIRTIGLIAGIELQSRDGAPGARAYDVFVDCFERGLLIRVTGDIIAFSPPLIAEKQHFGEIVSILADALKRVK", "Adipaldehyde 10 mM U/mg": "0.152 ± 0.001"}
{"molecule": "Syrb2: aminotransferase (AT) from Pseudomonas syringae (protein) MSKKFALTAEQRASFEKNGFIGPFDAYSPEEMKETWKRTRLRLLDRSAAAYQDLDAISGGTNIANYDRHLDDDFLASHICRPEICDRVESILGPNVLCWRTEFFPKYPGDEGTDWHQADTFANASGKPQIIWPENEEFGGTITVWTAFTDANIANGCLQFIPGTQNSMNYDETKRMTYEPDANNSVVKDGVRRGFFGYDYRQLQIDENWKPDEASAVPMQMKAGQFIIFWSTLMHASYPHSGESQEMRMGFASRYVPSFVHVYPDSDHIEEYGGRISLEKYGAVQVIGDETPEYNRLVTHTTRGKKFEAV", "Adipaldehyde 10 mM U/mg": "0.040 ± 0.001"}
{"molecule": "gabT: aminotransferase (AT) from Escherichia coli (protein) MNSNKELMQRRSQAIPRGVGQIHPIFADRAENCRVWDVEGREYLDFAGGIAVLNTGHLHPKVVAAVEAQLKKLSHTCFQVLAYEPYLELCEIMNQKVPGDFAKKTLLVTTGSEAVENAVKIARAATKRSGTIAFSGAYHGRTHYTLALTGKVNPYSAGMGLMPGHVYRALYPCPLHGISEDDAIASIHRIFKNDAAPEDIAAIVIEPVQGEGGFYASSPAFMQRLRALCDEHGIMLIADEVQSGAGRTGTLFAMEQMGVAPDLTTFAKSIAGGFPLAGVTGRAEVMDAVAPGGLGGTYAGNPIACVAALEVLKVFEQENLLQKANDLGQKLKDGLLAIAEKHPEIGDVRGLGAMIAIELFEDGDHNKPDAKLTAEIVARARDKGLILLSCGPYYNVLRILVPLTIEDAQIRQGLEIISQCFDEAKQ", "Adipaldehyde 10 mM U/mg": "0.337 ± 0.008"}
{"molecule": "SM2011_b20423: aminotransferase (AT) from Sinorhizobium meliloti (protein) MLERSNELTAWDRDHFFHPSTHMGMHARGETPTRVIGGGEGVYITDISGKRSLDAFAGLYCVNVGYGRQKIADAIAEQAKNLAYYHAYVGHGTEASIRLSKMIIDRAPEGMSRVYFGLSGSDANETNIKLIWYYNNILGRPEKKKIISRWRGYHGSGVMTGSLTGLHLFHNAFDLPRAPILHTEAPYYFRRPDRSMSEEQFSQYCADKLEEMILAEGPDTVAAFIGEPILGTGGIVPPPKGYWEKIQAVLQKYDILLVADEVVTGFGRLGTMFGSDHYGIKPDLITIAKGLTSAYAPLSGTIVSDKLWQVLVKGSDELGAIGHGWTYSAHPICAAAGIANLELIDELGIVENAGSTGAYFRAELQKAVGDHRHVGEVRGDGLMAAIEFVEDRDDRAFFDPGRKVGPQVAAALLERGVIGRAMPQGDILGFAPPLCLTRDEADIVVKAAADTIQSVLGR", "Adipaldehyde 10 mM U/mg": "0.162 ± 0.002"}
{"molecule": "SM2011_b20379: aminotransferase (AT) from Sinorhizobium meliloti (protein) MNDRPNSLHALDKQSLVHPYTNLAVHQETGPHVITGGDGIYVVDDEGKRYIEGLAGLFCAGLGFSEQRLVEAATRQLKTMPFYHSFAHKSTEPGIRLAEKLLSIAPVPMSKVFFAGSGSEANDTAIKLIWYYNNALGRPEKKKIISRRKAYHGVTVATASLTGLPFNHRDFDLPIANILHTDCPHYWRFAETGETEEDFATRMANNLEAIILEEGPETIAAFFAEPVMVSGGVITPPKTYFEKVQAVLRKYDILLIADEVICGFGRTGNMFGSETYGLKPDMISCAKQLSAAYMPISALMINAKIADALVDQSRKIGTFSHGFTYGGHPVAAAVALEALTIYEEIDIVGHVRSVAPAFQDRVRKLGEHPLIGEARGVGLVAGLEFVKDKATRENFPPAWQVANQAGKFATARGVLTRGLGDMVSLCPAMIIDDEQIDDLMTRMGLALDDTLAWARAQGHVG", "Adipaldehyde 10 mM U/mg": "0.106 ± 0.008"}
{"molecule": "SM2011_b21186: aminotransferase (AT) from Sinorhizobium meliloti (protein) MTSLTDRKNAAISRGVGMTTQVYADRAENAEIWDKEGNRYIDFAAGIAVVNTGHRHPKVIAAVKAQLDRFTHTCHQVVPYENYVHLAERLNAIVPGDFAKKTIFVTTGAEAVENAVKIARAATGRQAVVAFGGGFHGRTFMGMALTGKVVPYKVGFGAMPADVFHAPFPIELHGVTVEQSLSALKKLFAADVDPARVAAIIIEPVQGEGGFYPVPTAFMKALREVCDQHGILLIADEVQTGFARTGKLFAMEHHGVAPDLTTMAKSLAGGFPLAAVTGRAEIMDAPGPGGLGGTYGGNPLGIAAAHAVLDVIAEENLCERANQLGNRLKQRLAAIREKAPEIVDIRGPGFMNAVEFNDVRTNLPSAEFANKVRLLALEKGLILLTCGVHGNVIRFLAPITIQDEVFAEALDTIEASILEARG", "Adipaldehyde 10 mM U/mg": "0.051 ± 0.014"}
